The assay addresses T1, hMUC16 peptide biotinylated either at C- or N-terminus (bio-hMUC16) (human, biotin at C- or N-terminus).
T1 construct: Captured on streptavidin-coated plates for panning and ELISA screening; also called human MUC16 peptide; MUC16 immunization peptide
T1 peptide: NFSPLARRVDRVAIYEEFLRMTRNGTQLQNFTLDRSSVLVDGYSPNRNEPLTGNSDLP
Nature of the assay: ELISA, crude periplasmic extracts on biotinylated hMUC16 peptide captured on streptavidin-coated wells. The protocol: The Core 93GG library was panned on hMUC16 peptide […] (SEQ ID NO:92) biotinylated either at C- or N-terminus (bio-hMUC16) for 4 rounds. The bio-hMUC16 peptide was allowed to interact with streptavidin coated plates after which phages from the library were added to the plate. The enrichment for antigen-specific phages was assessed after each round of panning by comparing the number of phagemid particles eluted from antigen-coated wells with the number of phagemid particles eluted from negative control wells (coated with streptavidin and blocked but containing no peptide). […] No enrichment was observed after the 1st, 3rd and 4th round. In total, 380 colonies (190 from round 3, 190 from round 4) were randomly selected and analyzed by ELISA for the presence of antigen-specific nanobodies in their periplasmic extracts (ELISA using crude periplasmic extracts including soluble nanobodies). The peptides used for ELISA screening were the same as the ones used for panning, using blocked streptavidin-coated wells without peptide as negative control. Out of these 380 colonies, 34 colonies scored positive in this assay. Based on sequence data of the positive colonies, 6 different full length nanobodies were distinguished, belonging to 2 different CDR3 groups (B-cell lineages) (see Excel file). […] Nanobodies belonging to the same CDR3 group recognize the same epitope but their other characteristics (e.g. affinity, potency, stability, expression yield, etc.) can be different. Clones from these pannings bear the following code in their name: MU.
For orientation: An ELISA detects its analyte on a solid surface through an enzyme-linked reagent.

B1: Single domain anti-MUC16 R3MU119 (VHH)
VHH: QVQLQESGGGLVQPGDSMRLSCAAEGDSLDGYVVGWFRQAPGKERQGVSSISGDGSMRYVADSVKGRFTISRDNAKNTVYLQMIDLKPEDTGVYYCAADPPTWDYWGQGTQVTVSS
notes: Tested as soluble nanobody in crude periplasmic extract; not shown: C-terminal HA tag and His6 tag of the pMECS GG vector
On to B1, for which the binding result is “binds”.

B2: Single domain anti-MUC16 R3MU63 (VHH)
VHH: QVQLQESGGGLVQAGDSLRLSCAASGRTVSSLFMGWFRRAPGKERELVAAISRYSLYTYYADSVKGRFTISADNAKNAVYLQMNSLKPEDTAVYYCASKLEYTSNDYDSWGQGTQVTVSS
notes: as for B1
For the molecule B2, the binding result is given as “binds”.

B3: Single domain anti-MUC16 R3MU150 (VHH)
VHH: QVQLQESGGGLVQPGGSLRLSCAASGRTVSSLFMGWFRRAPGKERELVAAISRYSLYTYYADSVKGRFTISADNAKNAVYLQMNSLKPEDTAVYYCASKLEYTSNDYDSWGQGTQVTVSS
notes: as for B1
On to B3, for which the binding result is “binds”.

B4: Single domain anti-MUC16 R3MU147 (VHH)
VHH: QVQLQESGGGLVQAGESLRLSCAASGRTVSSLFMGWFRRAPGKERELVAAISRYSLYTYYADSVKGRFTISADNAKNAVYLQMNSLKPEDTAVYYCASKLEYTSNDYDSWGQGTQVTVSS
notes: as for B1
In the case of B4, the binding result is reported as “binds”.

B5: single domain anti-MUC16 binder R3MU4 (VHH)
VHH: QVQLQESGGGLVQAGGSLRLSCAASGRTVSSLFMGWFRQAPGKERELVAAISRYSLYTYYADSVKGRFTISADNAKNAVYLQMNSLKPEDTAVYYCASKLEYTSNDYDSWGQGTQVTVSS
notes: as for B1
Regarding B5, the binding result is reported as “binds”.

B6: Single domain anti-MUC16 R3MU29 (VHH)
VHH: QVQLQESGGGLVQAGDSLRLSCAASGRAVSSLFMGWFRRAPGKERELVAAISRYSLYTYYADSVKGRFTISADNAKNAVYLQMNSLKPEDTAVYYCASKLEYTSNDYDSWGQGTQVTVSS
notes: as for B1
For the molecule B6, the binding result is “binds”.

These data come from patent publication US20210253666A1 (TCR2 THERAPEUTICS, published 2021).
